Results reported in patent publication US6103872A, “CAPON: a protein associated with neuronal nitric oxide synthase” (The Johns Hopkins University, priority 1998, dated 2000).
Positions count from the first letter of the chain named.

How the values were obtained:
nNOS/PSD95 interaction [1] = assay: Competition of His6-fusion proteins for nNOS binding to immobilized GST-PSD95; parameters: competition for / block of nNOS-PSD95 interaction: dose or concentration left out as unconfirmed; details: for block of nNOS/PSD95 interaction in vitro: no concentration stated
Description: (§1) The C-terminal 100 amino acids were fused to a His6 tag and added to HEK293 lysates transfected with nNOS expression plasmids at the indicated fusion protein concentration. This mixture was added to GST-PSD95 (amino acids 20-364) or GST-PSD93 (116-421), the regions of these proteins previously shown to interact with nNOS (Brenrman et al., 1996).
(FIG. 5B) Quantification of CAPON inhibition of the nNOS/PSD95 interaction. HEK293 cells were transfected with nNOS expression plasmids and then metabolically labeled with [^35 S] methionine. Radiolabeled nNOS was purified and mixed with His6 -CAPON as in (A), above. Bound nNOS was resolved by electrophoresis and counts were determined on a Phospholmager.
Transfections were performed with 10 μg of each plasmid using the calcium phosphate method. Following transfection, cells were sonicated in buffer A [50 mM Tris-HCl (pH 7.7), 100 mM NaCl, 2 mM EDTA, and 1% Triton X-100] and cleared by centrifugation. This cellular lysate was incubated with GST-fusion protein immobilized on glutathione-agarose for one hour at 4° C. and washed extensively in HNTG buffer [20 mM Hepes (pH 7.4), 500 mM NaCl, 10% glycerol, and 0.1% Triton X-100] five times, for ten minutes per wash at room temperature. A GST-CAPON fusion protein consisting of amino acids 379-503 was used for binding assays because it was more soluble when expressed in bacteria than larger CAPON fusion proteins.
For quantitative binding experiments, transfected cells were metabolically labeled overnight with […] [^35 S] methionine and nNOS was purified by NADPH elution of 2', 5' ADP ribose as described previously (Bredt and Snyder, 1990).
Since the nNOS PDZ domain is capable of both PDZ-PDZ interactions and PDZ-C-terminal peptide interactions we wondered whether CAPON and PSD95 can bind simultaneously to nNOS or whether their interactions with nNOS are mutually exclusive. To answer this question we incubated lysates of HEK-293 cells containing nNOS with various concentrations of a His6 -CAPON fusion protein, comprising the last 125 amino acids of CAPON, and then added these lysates to GST-PSD95 immobilized on glutathione agarose resin (FIG. 5A). After extensive washing of the resin, we assayed for nNOS bound to PSD95 by Western blot. […] Half maximal reduction of binding is evident between 5 and 50 nM His6 -CAPON (FIG. 5B). […] As controls, we examined the effects of 5 μM His6 -PIN or […] His6 -FK506 binding protein-12 kD (FKBP). […] These effects of CAPON likely reflect its binding to nNOS rather than to the PDZ domains of either PSD95 or PSD93 because CAPON fails to interact with either PSD93 or PSD95 using (i) a two-hybrid assay (see FIG. 1A) and (ii) in vitro experiments utilizing immobilized GST-PSD95 and purified recombinant CAPON (data not shown).

nNOS/PSD95 interaction [2] = assay: Coimmunoprecipitation of myc-PSD95 with HA-nNOS in transfected HEK293 cells; type: cell-based; details: cotransfection of full-length CAPON expression plasmid
Source text: FIG. 6. CAPON expression prevents the interaction of PSD95 and nNOS. HEK293 cells were transfected with various combinations of expression plasmids for HA-tagged nNOS (HA-NOS), myc-tagged PSD95, or CAPON. Following transfection, the lysates were immunoprecipitated with an anti-HA antibody and bound proteins were detected with the appropriate antibodies. Following cotransfection of HA-NOS and myc-PSD95, myc-PSD95 is detected in anti-HA immunoprecipitates. […] In the absence of HA-nNOS transfection, neither myc-PSD95 or CAPON is immunoprecipitated by anti-HA antibodies.
We wanted to determine if CAPON and PSD95 compete for binding to nNOS in intact cells. Accordingly, we transfected HEK-293 cells with various mixtures of expression plasmids containing cDNAs of hemagglutinin antigen (HA)-tagged nNOS, myc-tagged PSD95 and/or full-length CAPON. Following immunoprecipitation with antibodies to HA, we examined which proteins coprecipitated. In cells expressing HA-nNOS and myc-PSD95, antibodies to HA coprecipitate myc-PSD95 (FIG. 6). When various amounts of CAPON cDNA containing expression plasmids are also transfected, HA-immunoprecipitatescontain CAPON but substantially less PSD95.

nNOS [3] = biological target: T1, nNOS (Rattus norvegicus, UniProt P29476); assay: nNOS catalytic activity; type: biochemical; details: data not shown
[4] = biological target: nNOS expressed in transfected HEK293 cells (lysate; also metabolically labelled and purified); assay: competition: nNOS (HEK-293) binding to immobilized GST-PSD95 in the presence of His6-CAPON
nNOS [5] = biological target: T1, nNOS; assay: CAPON C-terminal peptides as competitors for nNOS binding; parameters: expressed in transfected cells; host or cells: HEK293
nNOS PDZ domain = assay: Binding of mutagenized His6-CAPON fusion proteins to immobilized GST-NOS (1-100); details: His6-fusion of last 100 amino acids of CAPON, last four amino acids given
Description: His6 -fusion proteins of the last 100 amino acids of CAPON were generated and incubated with GST-NOS (1-100) immobilized on glutathione agarose.
Recently Cantley and associates (Songyang et al., 1997) identified consensus sequences for binding to several PDZ domains. Binding of PDZ ligands involves the C-terminus of proteins, with determinants of specificity lying within the eight or fewer C-terminal amino acids. A consistent requirement among all the PDZ domain ligands is a hydrophobic residue, such as valine or leucine, as the final amino acid.

[6] = biological target: nNOS (purified nNOS standard; preparation and species not stated); assay: peptide competition; format not described
[7] = biological target: T2, nNOS construct comprising amino acids 163-245 (PIN-binding domain of nNOS), Gal4 BD fusion (rat); assay: yeast two-hybrid with truncations of nNOS
T2 chain: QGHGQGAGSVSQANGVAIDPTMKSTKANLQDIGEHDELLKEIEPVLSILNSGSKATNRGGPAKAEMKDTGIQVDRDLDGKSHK

nNOS/PSD93 interaction = assay: Competition for nNOS binding to immobilized GST-PSD93
Description: as §1
Since the nNOS PDZ domain is capable of both PDZ-PDZ interactions and PDZ-C-terminal peptide interactions we wondered whether CAPON and PSD95 can bind simultaneously to nNOS or whether their interactions with nNOS are mutually exclusive. To answer this question we incubated lysates of HEK-293 cells containing nNOS with various concentrations of a His6 -CAPON fusion protein, comprising the last 125 amino acids of CAPON, and then added these lysates to GST-PSD95 immobilized on glutathione agarose resin (FIG. 5A). After extensive washing of the resin, we assayed for nNOS bound to PSD95 by Western blot. […] Half maximal reduction of binding is evident between 5 and 50 nM His6 -CAPON (FIG. 5B). […] As controls, we examined the effects of 5 μM His6 -PIN or […] His6 -FK506 binding protein-12 kD (FKBP). […]

His6 -FKBP: His6-tagged FK506 binding protein-12 kD, control protein [reference compound]
competition for / block of nNOS-PSD95 interaction (nNOS/PSD95 interaction [1]): Neither of these proteins compete
block of nNOS/PSD95 interaction in vitro (nNOS/PSD95 interaction [1]): do not disrupt

CAPON: Carboxyl-terminal PDZ ligand of nNOS, 503 amino acid rat cytoplasmic protein
amount of myc-PSD95 in anti-HA precipitates (nNOS/PSD95 interaction [2]): substantially reduces
direct inhibition of nNOS catalytic activity (nNOS [3]): does not inhibit

His6-CAPON fusion protein comprising the last 125 amino acids of CAPON
IC50 [4]: 0.005 to 0.05 µM

16-residue peptides: 16-residue peptides of the CAPON C-terminus (LQRQELGDSLDDEIAV; UniProt O54960 488-503, looked up, fragment)
IC50 (nNOS [5]; read-out: IC50 as competitor): 10 µM

peptides comprising the C-terminal nine residues of CAPON: short, presumably unfolded, peptides comprising the C-terminal nine residues of CAPON (DSLDDEIAV)
binding to nNOS (nNOS [5]): bind nNOS weakly

B1: EIAA: His6-CAPON (last 100 amino acids), terminal valine mutated to alanine (protein)
chain: GLADFAHPVGSPLGRRDCLVKLECFRFLPAEDNQPMAQGEPLLGGLELIKFRESGIASEYESNTDESEERDSWSQEELPRLLNVLQRQELGDSLDDEIAA
binding to GST-NOS (1-100) (nNOS PDZ domain): prevents binding

B2: ESAV: His6-CAPON (last 100 amino acids), n-2 isoleucine mutated to serine (protein)
chain: B1 chain with I98S, A100V
binding to GST-NOS (1-100) (nNOS PDZ domain): tolerated

B3: EAAV: His6-CAPON (last 100 amino acids), n-2 isoleucine mutated to alanine (protein)
chain: B1 chain with I98A, A100V
binding to GST-NOS (1-100) (nNOS PDZ domain): tolerated

B4: DC20: His6-CAPON fusion protein with the C-terminal 20 amino acids deleted (protein)
chain: SGALPVLCESTTPKPEDLHSPLLGAGLADFAHPVGSPLGRRDCLVKLECFRFLPAEDNQPMAQGEPLLGGLELIKFRESGIASEYESNTDESEERDSWSQEELPR
competition for / block of nNOS-PSD95 interaction (nNOS/PSD95 interaction [1]): fails to block the interaction
block of nNOS/PSD95 interaction in vitro (nNOS/PSD95 interaction [1]): abolishes its ability to serve as a competitor

LQRQELGDSLDDEIAV [16-residue peptides of CAPON]
IC50 [6]: 10000 µM

B5: pAD-CAPON1 (Gal4 activation domain fused to the last 125 amino acids of CAPON) (other)
chain: SGALPVLCESTTPKPEDLHSPLLGAGLADFAHPVGSPLGRRDCLVKLECFRFLPAEDNQPMAQGEPLLGGLELIKFRESGIASEYESNTDESEERDSWSQEELPRLLNVLQRQELGDSLDDEIAV
binding result [7]: no binding

B6: His6 -CAPON: His6-tagged fusion protein of the C-terminal 100 or 125 amino acids of CAPON (protein)
chain: B5 chain
reduction of nNOS binding to GST-PSD95 (nNOS/PSD95 interaction [1]; 5 nM fusion protein): substantial reduction
block of nNOS/PSD95 interaction in vitro (nNOS/PSD95 interaction [1]): specifically block
effective concentration range as competitor (nNOS/PSD95 interaction [1]; see FIG. 5): active in the nanomolar range
binding to GST-NOS (1-100) (nNOS PDZ domain): binds
competition for nNOS binding to immobilized GST-PSD93 (nNOS/PSD93 interaction): effective competitor
